From publication PMC8492941 come the findings set out here.

This experiment addresses ABD-fused VP1 (ABD-VP1) protein vaccine (not stated | Coxsackievirus B3) (UniProt P03313). The experiment is described as follows: ELISA; sandwich ELISA on serum of mice injected subcutaneously with ABD-VP1 or VP1: plates pre-coated with anti-VP1 antibody, detection with anti-albumin antibody and HRP-labeled secondary antibody, absorbance at 450 nm; the complex formed in vivo.

Consider “mouse serum albumin (MSA) (from UniProt P07724 25-608) (natural protein)”, for which the OD450 was determined as 0.7 OD450.
